Results from patent publication US20250197467A1 (BRIGHT PEAK THERAPEUTICS, published 2025).
Numbering of substitutions follows the chain as printed.

T1: IL-18 receptor (IL-18Rαβ) on cells (UniProt Q13478 19-541; O95256 20-599, limits assumed)
T1 sequence (looked up) 1: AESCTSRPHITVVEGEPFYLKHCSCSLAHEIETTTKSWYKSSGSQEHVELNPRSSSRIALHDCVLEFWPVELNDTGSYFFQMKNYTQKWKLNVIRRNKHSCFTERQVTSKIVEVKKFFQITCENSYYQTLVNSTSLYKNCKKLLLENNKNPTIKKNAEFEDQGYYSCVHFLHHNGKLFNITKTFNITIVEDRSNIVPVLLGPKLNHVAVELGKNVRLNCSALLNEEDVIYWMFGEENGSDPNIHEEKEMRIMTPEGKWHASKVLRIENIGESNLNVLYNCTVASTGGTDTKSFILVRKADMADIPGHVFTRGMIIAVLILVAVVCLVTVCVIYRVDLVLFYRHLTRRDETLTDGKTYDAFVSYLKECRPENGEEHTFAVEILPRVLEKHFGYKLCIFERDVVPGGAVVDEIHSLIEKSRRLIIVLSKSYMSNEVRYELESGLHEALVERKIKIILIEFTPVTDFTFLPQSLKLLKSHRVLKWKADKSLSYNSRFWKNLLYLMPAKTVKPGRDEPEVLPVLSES
T1 sequence (looked up) 2: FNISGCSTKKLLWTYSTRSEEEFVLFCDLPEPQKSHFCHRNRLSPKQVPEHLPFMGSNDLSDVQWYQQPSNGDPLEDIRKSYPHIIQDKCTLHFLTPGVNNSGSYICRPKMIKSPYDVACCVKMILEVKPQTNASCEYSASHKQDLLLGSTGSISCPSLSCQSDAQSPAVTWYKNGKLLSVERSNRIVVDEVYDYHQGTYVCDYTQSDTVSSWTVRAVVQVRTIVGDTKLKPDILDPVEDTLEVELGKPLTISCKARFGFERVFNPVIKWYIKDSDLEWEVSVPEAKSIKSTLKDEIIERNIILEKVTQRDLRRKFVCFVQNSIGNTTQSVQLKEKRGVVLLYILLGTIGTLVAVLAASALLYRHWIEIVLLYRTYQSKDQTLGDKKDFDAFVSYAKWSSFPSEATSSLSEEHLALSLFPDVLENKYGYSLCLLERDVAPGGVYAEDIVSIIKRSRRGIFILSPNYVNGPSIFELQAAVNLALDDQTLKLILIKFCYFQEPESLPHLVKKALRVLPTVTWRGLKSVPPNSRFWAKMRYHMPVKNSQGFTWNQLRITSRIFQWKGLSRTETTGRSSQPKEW

B1: C143 (ligand)
chain: YFGKLESKLSIIRNLNDQVLFIDQGNRPLFEDMTDSDARDNAPRTIFIISMYADSQPRGMAVTISVKCEKISTLSAENKIISFKEMNPPDNIKDTKSDIIFFQRSVPGHDNKMQFESSSYEGYFLAAEKERDLFKLILKKEDELGDRSIMFTVQNED
B2: C166 (ligand)
chain: B1 chain with A53K, S55T
B3: C161 (ligand)
chain: B1 chain with K8R, A53K, Q103E
B4: C152 (ligand)
chain: B1 chain with S36A
B5: C157 (ligand)
chain: B1 chain with D132A
B6: C148 (ligand)
chain: B1 chain with F2A
B7: C160 (ligand)
chain: B1 chain with D110A
B8: C165 (ligand)
chain: B1 chain with A53K, S55R
B9: C153 (ligand)
chain: B1 chain with D37A
B10: C145 (ligand)
chain: B1 chain with S55A
B11: C151 (ligand)
chain: B1 chain with D35A
B12: C154 (ligand)
chain: B1 chain with E31A, D37A
B13: C167 (ligand)
chain: B1 chain with A53K, S105I
B14: C159 (ligand)
chain: B1 chain with H109A
B15: C144 (ligand)
chain: B1 chain with T63A
B16: C155 (ligand)
chain: B1 chain with D40A
B17: C162 (ligand)
chain: B1 chain with K8E, A53K, Q103R
B18: C149 (ligand)
chain: B1 chain with E31A
B19: C168 (ligand)
chain: B1 chain with A53K, S105K
B20: C158 (ligand)
chain: B1 chain with G108A
B21: C164 (ligand)
chain: B1 chain with A53K, S55H
B22: C150 (ligand)
chain: B1 chain with T34A
B23: C156 (ligand)
chain: B1 chain with N41A
B24: C146 (ligand)
chain: B1 chain with M51G
B25: C163 (ligand)
chain: B1 chain with A53K, Q103K
B26: C147 (ligand)
chain: B1 chain with D54A
B27: C319 (ligand)
chain: MAAEPVEDNSINFVAMKFIDNTLYFIAEDDENLESDRGRRVANYFGKLKSKLSIIRNLNDQVLFIDQGNRPLFEDMTDSDARDNAPRTIFIISMYADSQPRGMAVAISVKCEKISTLSAENKIISFKEMNPPDNIKDTKSDIIFFQRSVPGHDNKMQFESSSYEGYFLAAEKERDLFKLILKKEDELGDRSIMFTVQNED
B28: C316 (ligand)
chain: MAAEPVEDNSINFVAMKFIDNTLYFIAEDDENLESDSGRVANLVGYFGKLKSKLSIIRNLNDQVLFIDQGNRPLFEDMTDSDARDNAPRTIFIISMYADSQPRGMAVAISVKCEKISTLSAENKIISFKEMNPPDNIKDTKSDIIFFQRSVPGHDNKMQFESSSYEGYFLAAEKERDLFKLILKKEDELGDRSIMFTVQNED
B29: C316 + Matriptase (ligand)
chain: B28 chain
B30: C318 (ligand)
chain: MAAEPVEDNSINFVAMKFIDNTLYFIAEDDENLESDSGRVANYFGKLKSKLSIIRNLNDQVLFIDQGNRPLFEDMTDSDARDNAPRTIFIISMYADSQPRGMAVAISVKCEKISTLSAENKIISFKEMNPPDNIKDTKSDIIFFQRSVPGHDNKMQFESSSYEGYFLAAEKERDLFKLILKKEDELGDRSIMFTVQNED
B31: C318 + Matriptase (ligand)
chain: B30 chain
B32: C320 (ligand)
chain: B30 chain with V40P, A41L, N42G
B33: C317 (ligand)
chain: MAAEPVEDNSINFVAMKFIDNTLYFIAEDDENLESDRGRRVANLVGYFGKLKSKLSIIRNLNDQVLFIDQGNRPLFEDMTDSDARDNAPRTIFIISMYADSQPRGMAVAISVKCEKISTLSAENKIISFKEMNPPDNIKDTKSDIIFFQRSVPGHDNKMQFESSSYEGYFLAAEKERDLFKLILKKEDELGDRSIMFTVQNED

Target: T1, IL-18 receptor (IL-18Rαβ) on cells
Assay: cell-based or functional assay

HEK-Blue IL-18R reporter EC50 | Binder
0.00098 nM | B1
0.00473 nM | B2
0.00201 nM | B3
0.00025 nM | B4
0.00195 nM | B5
0.00728 nM | B6
0.00202 nM | B7
0.00191 nM | B8
0.0141 nM | B9
0.00363 nM | B10
0.0131 nM | B11
0.0119 nM | B12
0.00537 nM | B13
0.0195 nM | B14
0.00017 nM | B15
0.00052 nM | B16
0.0023 nM | B17
0.0066 nM | B18
0.00773 nM | B19
0.0156 nM | B20
0.00314 nM | B21
0.0007 nM | B22
0.0117 nM | B23
0.0008 nM | B24
0.0015 nM | B25
0.001 nM | B26

Target: T1, IL-18 receptor (IL-18Rαβ) on cells
Assay: cell-based or functional assay
Remark: another data set of the same source

IFNγ release NK-92 assay EC50 | Binder
21.3 nM | B27
532 nM | B28
366 nM | B29
21.9 nM | B30
22.1 nM | B31
158 nM | B32
526 nM | B33

Target: T1, IL-18 receptor (IL-18Rαβ) on cells
Assay: cell-based or functional assay
Remark: another data set of the same source

EC50 (IFNγ stimulation, NK92) | Binder
0.138 nM | B1
0.098 nM | B2
0.057 nM | B3
0.033 nM | B4
0.056 nM | B5
0.256 nM | B6
0.028 nM | B7
0.176 nM | B8
0.175 nM | B9
0.087 nM | B10
0.061 nM | B11
0.062 nM | B12
0.103 nM | B13
0.123 nM | B14
0.012 nM | B15
0.067 nM | B16
0.061 nM | B17
0.187 nM | B18
0.098 nM | B19
0.073 nM | B20
0.414 nM | B21
0.015 nM | B22
0.558 nM | B23
0.037 nM | B24
0.093 nM | B25
0.079 nM | B26
